In paper PMC12431857, “A multichaperone condensate enhances protein folding in the endoplasmic reticulum” (Nature Cell Biology, 2025):

B1: Human PDIA6 lacking its ER signal sequence (residues 19-440) (natural protein, UniProt Q15084-1 19-440, looked up)
chain: GLYSSSDDVIELTPSNFNREVIQSDSLWLVEFYAPWCGHCQRLTPEWKKAATALKDVVKVGAVDADKHHSLGGQYGVQGFPTIKIFGSNKNRPEDYQGGRTGEAIVDAALSALRQLVKDRLGGRSGGYSSGKQGRSDSSSKKDVIELTDDSFDKNVLDSEDVWMVEFYAPWCGHCKNLEPEWAAAASEVKEQTKGKVKLAAVDATVNQVLASRYGIRGFPTIKIFQKGESPVDYDGGRTRSDIVSRALDLFSDNAPPPELLEIINEDIAKRTCEEHQLCVVAVLPHILDTGAAGRNSYLEVLLKLADKYKKKMWGWLWTEAGAQSELETALGIGGFGYPAMAAINARKMKFALLKGSFSEQGINEFLRELSFGRGSTAPVGGGAFPTIVEREPWDGRDGELPVEDDIDLSDVELDDLGKDEL
notes: Homodimer by SEC-MALS; Isotope-labelled (methyl labelling) for NMR; also called PDIA6 WT; PDIA6 full-length; not shown: His6, N-terminal, cleaved

Key:
[1] = biological target: B1; assay: NMR titration; 2D [13C,1H]-HMQC of methyl-labelled full-length PDIA6 with 10 mM Ca2+, 10 eq. linker peptide added, no crowding agent, 37 °C; read-out: populations of conformations P and O of domain b; also after addition of 1 M KCl; conditions: both partners purified
[2] = biological target: the molecule itself; assay: SEC-MALS; S200 10/300 GL column, 25 °C, SEC buffer (25 mM HEPES pH 7.5, 150 mM KCl, 10 mM MgCl2); proteins eluted at 20 μM
[3] = biological target: T1, Human BiP lacking its ER signal sequence (residues 19-654) (human, UniProt P11021 19-654); assay: NMR titration; 2D [13C,1H]-HMQC or [15N,1H]-HSQC of 100 μM labelled protein without and with 2 eq. of the unlabelled partner; chemical shift perturbation mapping; 37 °C; conditions: both partners purified
T1 construct: Isotope-labelled (Ile, Met, Val methyl groups) where it was the observed protein in NMR; also called Hsp70 BiP; GRP78; not shown: His6, N-terminal, cleaved
T1 sequence (P11021 19-654): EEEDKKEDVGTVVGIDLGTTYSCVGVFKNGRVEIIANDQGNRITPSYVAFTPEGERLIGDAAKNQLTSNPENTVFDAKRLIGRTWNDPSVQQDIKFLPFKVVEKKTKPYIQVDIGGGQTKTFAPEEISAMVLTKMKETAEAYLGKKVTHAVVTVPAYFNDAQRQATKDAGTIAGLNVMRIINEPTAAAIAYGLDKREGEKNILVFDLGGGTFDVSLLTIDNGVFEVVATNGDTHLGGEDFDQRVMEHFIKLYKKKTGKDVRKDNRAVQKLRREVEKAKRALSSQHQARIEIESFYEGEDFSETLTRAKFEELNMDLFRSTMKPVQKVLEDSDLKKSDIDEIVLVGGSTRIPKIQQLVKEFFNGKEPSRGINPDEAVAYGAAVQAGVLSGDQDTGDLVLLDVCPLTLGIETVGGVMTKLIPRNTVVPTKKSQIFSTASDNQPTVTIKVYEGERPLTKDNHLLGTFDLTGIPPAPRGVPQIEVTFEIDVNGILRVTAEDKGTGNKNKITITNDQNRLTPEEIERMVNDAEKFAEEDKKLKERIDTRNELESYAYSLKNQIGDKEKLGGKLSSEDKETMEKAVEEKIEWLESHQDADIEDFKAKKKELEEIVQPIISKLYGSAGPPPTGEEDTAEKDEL

[4] = biological target: T1, Human BiP lacking its ER signal …; assay: MST; 20 nM N-terminally tagged DyLight 488-PDIA6 with increasing BiP; SEC buffer with 5 mM ADP, 1 mM KH2PO4/K2HPO4, 0.05% Tween, 1 mM CaCl2; 30 min at 25 °C; Monolith NT.115; triplicates; conditions: both partners purified

Row | Binder | stoichiometry N [2] | other results
1 | GGRSGGYSSGKQGRSDSSSKK (linker between domains a0 and a of human PDIA6; Limits worked out from the printed positions R142, K150, R153, K159, K160 of the linker mutants; also called linker peptide) [21-residue peptide corresponding to the a0-a linker of PDIA6] |  | binding result [1]: binds
2 | B1 | 2 | binding result [3]: binds
3 | DyLight 488-PDIA6 (N-terminally tagged, residues 19-440) (natural protein, human, UniProt Q15084 19-440, looked up, DyLight 488 amine-reactive dye on the N-terminus, Same construct as m1, fluorescently labelled for MST (0.75-1.5 moles dye per mole protein); not shown: His6, N-terminal, cleaved) GLYSSSDDVIELTPSNFNREVIQSDSLWLVEFYAPWCGHCQRLTPEWKKAATALKDVVKVGAVDADKHHSLGGQYGVQGFPTIKIFGSNKNRPEDYQGGRTGEAIVDAALSALRQLVKDRLGGRSGGYSSGKQGRSDSSSKKDVIELTDDSFDKNVLDSEDVWMVEFYAPWCGHCKNLEPEWAAAASEVKEQTKGKVKLAAVDATVNQVLASRYGIRGFPTIKIFQKGESPVDYDGGRTRSDIVSRALDLFSDNAPPPELLEIINEDIAKRTCEEHQLCVVAVLPHILDTGAAGRNSYLEVLLKLADKYKKKMWGWLWTEAGAQSELETALGIGGFGYPAMAAINARKMKFALLKGSFSEQGINEFLRELSFGRGSTAPVGGGAFPTIVEREPWDGRDGELPVEDDIDLSDVELDDLGKDEL |  | Kd [4]: ~50 µM
4 | PDIA6 (K150N, R153Q, K159N) linker mutant (natural protein, human, UniProt Q15084 19-440, looked up, PDIA6, human, residues 19-440; source: E. coli BL21-(DE3)-Lemo, purified as the WT protein; not shown: His6, N-terminal, cleaved) GLYSSSDDVIELTPSNFNREVIQSDSLWLVEFYAPWCGHCQRLTPEWKKAATALKDVVKVGAVDADKHHSLGGQYGVQGFPTIKIFGSNKNRPEDYQGGRTGEAIVDAALSALRQLVKDRLGGRSGGYSSGNQGQSDSSSNKDVIELTDDSFDKNVLDSEDVWMVEFYAPWCGHCKNLEPEWAAAASEVKEQTKGKVKLAAVDATVNQVLASRYGIRGFPTIKIFQKGESPVDYDGGRTRSDIVSRALDLFSDNAPPPELLEIINEDIAKRTCEEHQLCVVAVLPHILDTGAAGRNSYLEVLLKLADKYKKKMWGWLWTEAGAQSELETALGIGGFGYPAMAAINARKMKFALLKGSFSEQGINEFLRELSFGRGSTAPVGGGAFPTIVEREPWDGRDGELPVEDDIDLSDVELDDLGKDEL | 2 | 
5 | PDIA6 (R142Q, K150N, R153Q) linker mutant (natural protein, human, UniProt Q15084 19-440, looked up, PDIA6, human, residues 19-440; source: E. coli BL21-(DE3)-Lemo, purified as the WT protein; not shown: His6, N-terminal, cleaved) GLYSSSDDVIELTPSNFNREVIQSDSLWLVEFYAPWCGHCQRLTPEWKKAATALKDVVKVGAVDADKHHSLGGQYGVQGFPTIKIFGSNKNRPEDYQGGRTGEAIVDAALSALRQLVKDRLGGQSGGYSSGNQGQSDSSSKKDVIELTDDSFDKNVLDSEDVWMVEFYAPWCGHCKNLEPEWAAAASEVKEQTKGKVKLAAVDATVNQVLASRYGIRGFPTIKIFQKGESPVDYDGGRTRSDIVSRALDLFSDNAPPPELLEIINEDIAKRTCEEHQLCVVAVLPHILDTGAAGRNSYLEVLLKLADKYKKKMWGWLWTEAGAQSELETALGIGGFGYPAMAAINARKMKFALLKGSFSEQGINEFLRELSFGRGSTAPVGGGAFPTIVEREPWDGRDGELPVEDDIDLSDVELDDLGKDEL | 2 | 
6 | PDIA6 5x linker mutant (R142Q, K150N, R153Q, K159N and K160N) (natural protein, human, UniProt Q15084 19-440, looked up, PDIA6, human, residues 19-440; source: E. coli BL21-(DE3)-Lemo, purified as the WT protein; not shown: His6, N-terminal, cleaved) GLYSSSDDVIELTPSNFNREVIQSDSLWLVEFYAPWCGHCQRLTPEWKKAATALKDVVKVGAVDADKHHSLGGQYGVQGFPTIKIFGSNKNRPEDYQGGRTGEAIVDAALSALRQLVKDRLGGQSGGYSSGNQGQSDSSSNNDVIELTDDSFDKNVLDSEDVWMVEFYAPWCGHCKNLEPEWAAAASEVKEQTKGKVKLAAVDATVNQVLASRYGIRGFPTIKIFQKGESPVDYDGGRTRSDIVSRALDLFSDNAPPPELLEIINEDIAKRTCEEHQLCVVAVLPHILDTGAAGRNSYLEVLLKLADKYKKKMWGWLWTEAGAQSELETALGIGGFGYPAMAAINARKMKFALLKGSFSEQGINEFLRELSFGRGSTAPVGGGAFPTIVEREPWDGRDGELPVEDDIDLSDVELDDLGKDEL | 2 | 
7 | PDIA6 his-domain ab (residues 161-440) (domain or fragment, human, UniProt Q15084 161-440, looked up, PDIA6, human, domains a and b with the C-terminal tail, residues 161-440; also called PDIA6 domain ab; his-TEV-domain ab; source: E. coli BL21-(DE3)-Lemo, purified (Ni-NTA, SEC); not shown: His6, N-terminal, kept) DVIELTDDSFDKNVLDSEDVWMVEFYAPWCGHCKNLEPEWAAAASEVKEQTKGKVKLAAVDATVNQVLASRYGIRGFPTIKIFQKGESPVDYDGGRTRSDIVSRALDLFSDNAPPPELLEIINEDIAKRTCEEHQLCVVAVLPHILDTGAAGRNSYLEVLLKLADKYKKKMWGWLWTEAGAQSELETALGIGGFGYPAMAAINARKMKFALLKGSFSEQGINEFLRELSFGRGSTAPVGGGAFPTIVEREPWDGRDGELPVEDDIDLSDVELDDLGKDEL |  | binding result [3]: binds
